# Assays:
# [1] = substrate: CC(=O)N[C@H](C(=O)N[C@@H](CC(C)C)C(=O)N[C@H](C(=O)N[C@@H](CCCCN)C(=O)Nc1ccc2c(C)cc(=O)oc2c1)[C@@H](C)O)C(C)C; experiment: Fluorogenic AMC release; type: biochemical; details: pH 7.4; 25.0 °C
# [2] = substrate: CC(=O)N[C@H](C(=O)N[C@@H](CC(C)C)C(=O)NCC(=O)N[C@@H](CCCCN)C(=O)Nc1ccc2c(C)cc(=O)oc2c1)C(C)C; experiment: Fluorogenic AMC release; type: biochemical; details: pH 7.4; 25.0 °C
protein,measurement,setting,value
PmC11 (Parabacteroides merdae) (protein) ETPEPRTTRTILVYMMANNSLNSFASKNIESMIEGATSKNLNGGNLIVYYAPAGSPPELLRIKEENGVVKKIHLKDYEKQNSADPDVMRSVIGEVVSQYPADSYGLVLWSHGTAWLPSDYQNKLKAFGQDGNNWMEIDDLAKGLPDDLFDFILFDACYMASVECTYELRNKAEYILASPTETMADGWPYEEMMPQLFATDLQLEKVGETFYNHYLNNTYPYATVSLTKTSELDNLKSVTHDILADKTESDIYSLDPKKMQRLEYLYRSPGMLYDFNDYIKQLATAEQYDRFISCLDKAVVYKAHTPKSYYAAIGNALPIKSYCGLTIFVPQESLPKMLEWYKQRVGWYKAVYE,Km,[1],20.4 µM
same,Km,[2],~185.8 µM

# Source: paper PMC5575927
